Columns and labels:
[1] = biological target: dynamitin (p50) subunit of dynactin, endogenous bovine (bovine) (UniProt Q3ZCF0); test: co-sedimentation
[2] = biological target: p62 subunit of dynactin (bovine); test: ion exchange chromatography
[3] = biological target: p150^Glued subunit of dynactin (bovine); test: co-sedimentation

Sequence of p62 subunit of dynactin (bovine) (Q9QUR2 whole entry): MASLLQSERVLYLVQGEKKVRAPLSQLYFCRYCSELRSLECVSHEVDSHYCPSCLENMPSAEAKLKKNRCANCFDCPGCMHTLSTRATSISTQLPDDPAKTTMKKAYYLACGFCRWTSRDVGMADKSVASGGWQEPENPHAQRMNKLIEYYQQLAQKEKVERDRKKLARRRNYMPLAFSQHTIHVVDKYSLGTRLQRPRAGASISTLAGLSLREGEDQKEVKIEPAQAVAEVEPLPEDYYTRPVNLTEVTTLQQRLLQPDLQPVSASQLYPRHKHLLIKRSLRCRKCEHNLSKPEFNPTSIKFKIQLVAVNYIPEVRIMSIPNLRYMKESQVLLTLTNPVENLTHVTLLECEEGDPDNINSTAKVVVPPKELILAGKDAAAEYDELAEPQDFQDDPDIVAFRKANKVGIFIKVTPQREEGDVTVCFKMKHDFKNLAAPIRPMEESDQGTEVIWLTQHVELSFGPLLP

Arp1, actin-related protein of the dynactin minifilament (natural protein)
stoichiometry N (Arp1 per dynamitin) [1]: 1.97

Arp11, novel actin-related protein of the dynactin pointed-end complex (from UniProt Q3ZBD2 1-417) (natural protein)
stoichiometry N ([2]; scale: Arp11 per 1 p62): 1

dynamitin (p50) subunit of dynactin, endogenous bovine (from UniProt Q3ZCF0 1-403) (natural protein)
stoichiometry N ([3]; scale: dynamitin per 2 p150): 2

p24 subunit of dynactin (from UniProt Q0P5A1 1-186) (natural protein)
stoichiometry N (p24 per 2 p150^Glued) [3]: 2 | stoichiometry N ([3]; scale: p24 per 2 p150): 1

p25 subunit of dynactin (from UniProt Q9QZB9 1-182) (natural protein)
stoichiometry N ([2]; scale: p25 per 1 p62): 1

p27 subunit of dynactin (from UniProt Q148G7 1-190) (natural protein)
stoichiometry N ([2]; scale: p27 per 1 p62): 1
